Measurements: patent US20230012273A1 (Boehringer Ingelheim, published 2023)

Legend:
[1] = molecular target: T1, cynoSIRPα (NP_001271679), Extracellular Domain + His-Tag (cynomolgus monkey); assay: SPR, antibody captured on Protein A/G, ECD-His analyte, 1:1 fit
T1 construct: also called CySIRPα NP_001271679; not shown: His-Tag
T1 chain: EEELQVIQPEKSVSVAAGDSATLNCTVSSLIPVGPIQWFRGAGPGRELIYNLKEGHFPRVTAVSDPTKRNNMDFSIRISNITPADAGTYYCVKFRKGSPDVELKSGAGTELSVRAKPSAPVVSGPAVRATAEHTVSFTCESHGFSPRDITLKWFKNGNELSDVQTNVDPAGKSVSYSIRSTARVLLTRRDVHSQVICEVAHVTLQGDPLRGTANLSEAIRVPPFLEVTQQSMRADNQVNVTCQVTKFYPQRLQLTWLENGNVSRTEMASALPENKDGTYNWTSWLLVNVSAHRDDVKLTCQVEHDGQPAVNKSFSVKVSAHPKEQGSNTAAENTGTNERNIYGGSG
Outline: (§1)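 Biacore 8K+ at HBS-EP+, with antibodies (~1 ug/ml) captured on Protein A/G CM5 surface to ~240 RU. SIRPα ECD-His analyte dilutions injected at 30 μl/min for 300 s association, 600 s dissociation.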

[2] = molecular target: T2, cynoSIRPα (EGM_02252), Extracellular Domain + His-Tag (cynomolgus monkey); assay: SPR, antibody captured on Protein A/G, ECD-His analyte, steady-state fit
T2 construct: also called CySIRPα EGM_02252; not shown: His-Tag
T2 chain: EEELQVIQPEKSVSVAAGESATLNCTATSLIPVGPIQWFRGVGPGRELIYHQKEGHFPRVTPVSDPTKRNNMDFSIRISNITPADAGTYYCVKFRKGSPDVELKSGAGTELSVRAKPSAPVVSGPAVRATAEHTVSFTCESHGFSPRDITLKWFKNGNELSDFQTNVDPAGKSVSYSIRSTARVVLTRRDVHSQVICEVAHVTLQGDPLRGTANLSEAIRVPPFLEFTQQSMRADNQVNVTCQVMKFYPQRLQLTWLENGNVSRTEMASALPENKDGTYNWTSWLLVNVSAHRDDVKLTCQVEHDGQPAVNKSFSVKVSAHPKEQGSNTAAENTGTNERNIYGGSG
Method: (§2) The binding kinetics of anti-SIRPα antibodies to various SIRPα analytes are determined by surface plasmon resonance (SPR) using a Biacore 8K+(Cytiva). 1×HBS-EP+(Cytiva) is used as running buffer and for all the dilutions unless stated otherwise. The Series S CM5 sensorchip is activated with a 1:1 mixture of 0.1 M NHS (N-hydroxysuccinimide) and 0.4 M EDC (1-Ethyl-3-(3-dimethylaminopropyl) carbodiimide hydrochloride) for 420 seconds at a flow rate of 10 μl/min and immobilized with Protein A/G (Thermo Scientific, 10 μg/ml in 10 mM acetate pH 4.5) for 420 seconds at a flowrate of 10 μl/min resulting in approximately 3000 RU of Protein A/G on the surface. The sensorchip is then deactivated with 1 M ethanolamine HCl pH 8.5 for 420 seconds at a flowrate of 10 μl/min.
(§3) Antibodies (approximately 1 ug/ml) are captured on the Protein A/G surface for 60 seconds at a flowrate of 10 μl/min resulting in capture levels of approximately 240 RU. Dilutions of each SIRP protein (Extracellular Domain+His-Tag, with the concentrations as indicated) are injected as analytes over the captured antibody for 300 seconds of association at a flowrate of 30 μl/min, followed by a dissociation for 600 seconds.
(§4) The above procedures are used to measure binding properties of antibodies of the present disclosure. For each analyte used, the highest concentration was as indicated in Example 3 (see Table 36).

[3] = molecular target: T3, cynoSIRPα (XP_015313155), Extracellular Domain + His-Tag (cynomolgus monkey); assay: as above
T3 construct: also called CySIRPα XP_015313155; not shown: His-Tag
T3 chain: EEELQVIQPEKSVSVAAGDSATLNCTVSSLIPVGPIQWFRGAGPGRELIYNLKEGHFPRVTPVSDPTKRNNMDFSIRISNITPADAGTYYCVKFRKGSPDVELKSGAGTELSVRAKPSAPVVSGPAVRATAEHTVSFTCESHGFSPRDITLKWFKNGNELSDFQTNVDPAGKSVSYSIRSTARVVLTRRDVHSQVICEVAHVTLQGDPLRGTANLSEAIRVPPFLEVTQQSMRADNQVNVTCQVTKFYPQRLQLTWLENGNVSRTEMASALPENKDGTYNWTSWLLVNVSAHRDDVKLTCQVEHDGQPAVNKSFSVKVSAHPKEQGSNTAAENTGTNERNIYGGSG
Method: as §2, §3, §4

[4] = molecular target: T4, Human SIRPαV2 (CAA71403.1), Extracellular Domain + His-Tag (human, UniProt P78324 31-373); assay: SPR, antibody captured on Protein A/G, ECD-His analyte, 1:1 fit
T4 construct: also called huSIRPαV2; hSIRPαV2; not shown: His-Tag
T4 sequence (P78324 other isoform, or with tags, fused parts or gaps): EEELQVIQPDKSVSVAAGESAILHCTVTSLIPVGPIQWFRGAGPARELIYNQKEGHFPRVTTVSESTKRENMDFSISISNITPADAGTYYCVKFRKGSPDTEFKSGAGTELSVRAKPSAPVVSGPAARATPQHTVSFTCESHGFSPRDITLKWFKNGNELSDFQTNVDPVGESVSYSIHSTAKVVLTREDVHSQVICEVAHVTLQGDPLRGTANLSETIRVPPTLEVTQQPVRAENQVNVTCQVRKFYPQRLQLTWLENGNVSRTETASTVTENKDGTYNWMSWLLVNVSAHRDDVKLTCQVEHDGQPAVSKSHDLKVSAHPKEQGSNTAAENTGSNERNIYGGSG
Outline: as §1

[5] = molecular target: T3, cynoSIRPα (XP_015313155), Extracellular …; assay: as above
Outline: as §1

[6] = molecular target: T5, Human SIRPαV1 (NP_542970.1), Extracellular Domain + His-Tag (human, UniProt P78324 31-373); assay: as above
T5 construct: also called huSIRPαV1; hSIRPαV1; not shown: His-Tag
T5 sequence (P78324 other isoform, or with tags, fused parts or gaps): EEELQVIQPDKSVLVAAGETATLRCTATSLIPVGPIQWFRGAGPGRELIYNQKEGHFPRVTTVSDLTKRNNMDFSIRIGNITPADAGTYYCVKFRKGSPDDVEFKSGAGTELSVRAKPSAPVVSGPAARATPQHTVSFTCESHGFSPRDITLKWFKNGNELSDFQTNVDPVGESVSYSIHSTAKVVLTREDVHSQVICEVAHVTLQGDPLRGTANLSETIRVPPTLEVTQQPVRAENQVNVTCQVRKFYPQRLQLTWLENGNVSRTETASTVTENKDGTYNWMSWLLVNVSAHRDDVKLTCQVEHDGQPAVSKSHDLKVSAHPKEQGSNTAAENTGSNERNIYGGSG
Outline: as §1

[7] = molecular target: T2, cynoSIRPα (EGM_02252), Extracellular …; assay: SPR, antibody captured on Protein A/G, ECD-His analyte
Method: as §2, §3

[8] = molecular target: T6, human SIRPγ extracellular domain + His-tag (NP_061026.2) (human, UniProt Q9P1W8 29-360); assay: SPR, Ab captured, ECD-His analyte
T6 construct: also called hSIRPγ; HuSIRPγ
T6 sequence (Q9P1W8 29-360): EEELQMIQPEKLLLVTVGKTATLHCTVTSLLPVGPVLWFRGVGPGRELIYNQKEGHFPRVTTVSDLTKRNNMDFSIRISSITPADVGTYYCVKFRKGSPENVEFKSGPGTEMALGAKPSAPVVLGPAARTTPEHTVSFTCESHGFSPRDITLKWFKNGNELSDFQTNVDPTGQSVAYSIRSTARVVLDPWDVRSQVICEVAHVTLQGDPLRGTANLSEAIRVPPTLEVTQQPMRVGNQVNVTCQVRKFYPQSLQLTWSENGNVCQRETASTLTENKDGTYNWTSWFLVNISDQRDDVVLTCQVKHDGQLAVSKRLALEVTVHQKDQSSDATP
Method: (§5) The binding affinity of anti-SIRPα antibodies to the various SIRPα analytes is determined by surface plasmon resonance (SPR) using a ProteOn XPR36 (Bio-Rad). The running buffer for this experiment and all dilutions (except where stated) are done in 1×HBS-EP+. […] The sensorchip is deactivated with 1M ethanolamine HCl for 420 sec at a flowrate of 10 μl/min.
(§6) The analyte is injected over the captured antibody for 300 sec at a flowrate of 30 μl/min. The dissociation is done for 600 sec. Two-fold serial dilutions of each SIRP protein (Extracellular Domain+His-Tag) are injected as analyte with the highest concentrations indicated in table 36 below.

[9] = molecular target: T7, human SIRPβL/SIRPβ1v3 extracellular domain + His-tag (NP_001129316.1) (human, UniProt Q5TFQ8 30-371); assay: SPR, Ab captured, ECD-His analyte
T7 construct: also called hSIRPβ1v3; HuSIRPβ1v3
T7 sequence (Q5TFQ8 other isoform, or with tags, fused parts or gaps): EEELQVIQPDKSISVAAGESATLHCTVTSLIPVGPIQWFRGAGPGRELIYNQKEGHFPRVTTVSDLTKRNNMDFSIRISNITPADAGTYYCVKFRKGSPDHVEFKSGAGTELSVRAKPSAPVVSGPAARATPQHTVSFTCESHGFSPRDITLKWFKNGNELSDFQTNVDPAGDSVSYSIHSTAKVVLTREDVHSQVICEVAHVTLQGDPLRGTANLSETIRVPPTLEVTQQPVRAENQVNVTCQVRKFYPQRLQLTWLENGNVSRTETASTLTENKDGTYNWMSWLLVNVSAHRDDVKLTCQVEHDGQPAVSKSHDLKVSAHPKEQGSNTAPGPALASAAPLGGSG
Method: as §5, §6

[10] = molecular target: T8, human SIRPαV1 extracellular domain + His-tag (NP_542970.1) (human, UniProt P78324 31-373); assay: SPR, Ab captured, ECD-His analyte
T8 construct: also called hSIRPαV1; HuSIRPαV1
Method: as §5, §6

[11] = molecular target: T9, human SIRPαV2 extracellular domain + His-tag (CAA71403.1) (human, UniProt P78324 31-373); assay: SPR, Ab captured, ECD-His analyte
T9 construct: also called hSIRPαV2; HuSIRPαV2
Method: as §5, §6

[12] = molecular target: T10, human SIRPβ1 extracellular domain + His-tag (NP_006056.2) (human, UniProt O00241 30-371); assay: SPR, Ab captured, ECD-His analyte
T10 construct: also called hSIRPβ1; HuSIRPβ1
T10 sequence (O00241 other isoform, or with tags, fused parts or gaps): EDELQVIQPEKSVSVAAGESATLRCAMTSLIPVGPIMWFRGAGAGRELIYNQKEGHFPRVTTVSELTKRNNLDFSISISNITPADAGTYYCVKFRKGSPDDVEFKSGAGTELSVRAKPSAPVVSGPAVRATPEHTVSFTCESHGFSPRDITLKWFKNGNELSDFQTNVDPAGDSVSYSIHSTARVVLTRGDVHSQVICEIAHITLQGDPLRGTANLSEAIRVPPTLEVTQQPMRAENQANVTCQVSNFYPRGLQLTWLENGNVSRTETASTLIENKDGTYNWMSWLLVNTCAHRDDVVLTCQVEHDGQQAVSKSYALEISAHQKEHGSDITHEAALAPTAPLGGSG
Method: as §5, §6

Row | Binder | binding result [8] | Kd [9] [nM] | Kd [10] [nM] | Kd [11] [nM] | Kd [12] [nM] | binding result [12] | also measured
1 | Antibody A (antibody, human IgG1, kappa, L234A L235A) heavy: not shown light: DIQMTQSPSSLSASVGDRVTITCRASQDINNYLAWFQQKPGKAPKSLIYTASSLHSGVPSKFSGSGSGTDFTLTISSLQPEDFATYYCQQYVSYPYTFGQGTKLEIKRTVAAPSVFIFPPSDEQLKSGTASVVCLLNNFYPREAKVQWKVDNALQSGNSQESVTEQDSKDSTYSLSSTLTLSKADYEKHKVYACEVTHQGLSSPVTKSFNRGEC | – | – | – | – | – | – | Kd [1]: 158 nM; koff [1]: 0.138 s⁻¹; kon [1]: 873000 M⁻¹ s⁻¹; Kd [2]: 258 nM; Kd [3]: 165 nM
2 | Antibody E21 (antibody, human IgG1, kappa, L234A L235A, V domains shown) VH: QVQLQESGPGLVRPSETLSLTCTVSGGSIRNYYWSWIRQPPGKGLEWIGFIYYTGRTFYNPSLKSRVTISLDMSKNQFSLKMTSVTAADTAVYYCARVRAYSGIGLDGTDVWGQGTTVTVSS VL: DIVMTQSPLSLPVTPGEPASISCKSSQSLLYSNAYNYLDWYLQRPGQSPQLLIYLGSNRASGVPDRFSGSGSGTDFTLKISRVEAEDVGVYYCMQALQTPLTFGGGTKVEIKR | – | – | – | – | – | – | Kd [4]: 1.39 nM; koff [4]: 0.000761 s⁻¹; kon [4]: 549000 M⁻¹ s⁻¹; Kd [5]: 108 nM; koff [5]: 0.0245 s⁻¹; kon [5]: 228000 M⁻¹ s⁻¹; Kd [1]: 107 nM; koff [1]: 0.0242 s⁻¹; kon [1]: 225000 M⁻¹ s⁻¹; Kd [6]: 4.46 nM; koff [6]: 0.00212 s⁻¹; kon [6]: 476000 M⁻¹ s⁻¹; binding result [7]: no binding (tested: 1000 nM)
3 | Antibody E5 (antibody, human IgG1, kappa, L234A L235A, V domains shown) VH: QVQLQESGPGLVRPSETLSLTCTVSGGSIRNYYWSWIRQPPGKGLEWIGFIYYNGRTFYNPSLKSRVTISLDKSKNQFSLKMTSVTAADTAVYYCARVRAYSGIGLDGTDVWGQGTTVTVSS VL: DIVMTQSPLSLPVTPGEPASISCKSSQSLLYSNGYAYLDWYLQRPGQSPQLLIYQGSNRASGVPDRFSGSGSGTDFTLKISRVEAEDVGVFYCMQALQTPLTFGGGTKVEIKR | no binding (tested: 1000 nM) | 2.72 | 1.02 | 0.873 | 1380 | – | –
4 | Antibody E2 (antibody, human IgG1, kappa, L234A L235A, V domains shown) VH: QVQLQESGPGLVRPSETLSLTCTVSGGSIRNYYWSWIRQPPGKGLEWIGFIYYNGRTFYNPSLKSRVTISLDMSINQFSLKMTSVTAADTAVYYCARVRAYSGIGLDGTDVWGQGTTVTVSS VL: DIVMTQSPLSLPVTPGEPASISCKSSQSLLYSNGYAYLDWYLQRPGQSPQLLIYLGSNRASGVPDRFSGSGSGTDFTLKISRVEAEDVGVYYCMQALQTPLTFGGGTKVEIKR | no binding (tested: 1000 nM) | 1.93 | 0.912 | 0.687 | – | no binding (tested: 1000 nM) | –
5 | Antibody E8 (antibody, human IgG1, kappa, L234A L235A, V domains shown) VH: QVQLQESGPGLVRPSETLSLTCTVSGGSIRNYYWSWIRQPPGKGLEWMGFIYDNGRTFYNPSLKSRVTISLDMSMNQFSLKMTSVTAADTAVYYCARVRAYSGIGLDGTDVWGQGTTVTVSS VL: DIVMTQSPLSLPVTPGEPASISCKSSQSLLYSNGYAYLDWYLQRPGQSPQLLIYQGSNRASGVPDRFSGSGSGTDFTLKISRVEAEDVGVFYCMQALQTPLTFGGGTKVEIKR | no binding (tested: 1000 nM) | 2.58 | 1.21 | 0.542 | 2420 | – | –
6 | Antibody E9 (antibody, human IgG1, kappa, L234A L235A, V domains shown) VH: QVQLQESGPGLVRPSETLSLTCTVSGGSIRNYYWSWIRQPPGKGLEWIGFIYYNGRTFYNPSLKSRVTISLDMSINQFSLKMTSVTAADTAVYYCARVRAYSGIGLDGTDVWGQGTTVTVSS VL: DIVMTQSPLSLPVTPGEPASISCKSSQSLLYSNAYNYLDWYLQRPGQSPQLLIYLGSNRASGVPDRFSGSGSGTDFTLKISRVEAEDVGVYYCMQALQTPLTFGGGTKVEIKR | no binding (tested: 1000 nM) | 3.16 | 1.22 | 0.941 | – | no binding (tested: 1000 nM) | –
7 | Antibody E6 (antibody, human IgG1, kappa, L234A L235A, V domains shown) VH: QVQLQESGPGLVRPSETLSLTCTVSGGSIRNYYWSWIRQPPGKGLEWIGFIYYNGRTFYNPSLKSRVTISLDKSKNQFSLKMTSVTAADTAVYYCARVRAYSGIGLDGTDVWGQGTTVTVSS VL: DIVMTQSPLSLPVTPGEPASISCKSSQSLLYSNGYAYLDWYLQRPGQSPQLLIYLGSNRASGVPDRFSGSGSGTDFTLKISRVEAEDVGVYYCMQALQTPLTFGGGTKVEIKR | no binding (tested: 1000 nM) | 2.72 | 1.03 | 0.875 | – | no binding (tested: 1000 nM) | –
8 | Antibody E7 (antibody, human IgG1, kappa, L234A L235A, V domains shown) VH: QVQLQESGPGLVRPSETLSLTCTVSGGSIRNYYWSWIRQPPGKGLEWIGFIYYNGRTFYNPSLKSRVTISLDTSKNQFSLKMTSVTAADTAVYYCARVRAYSGIGLDGTDVWGQGTTVTVSS VL: DIVMTQSPLSLPVTPGEPASISCKSSQSLLYSNGYAYLDWYLQRPGQSPQLLIYQGSNRASGVPDRFSGSGSGTDFTLKISRVEAEDVGVFYCMQALQTPLTFGGGTKVEIKR | no binding (tested: 1000 nM) | 2.21 | 1.2 | 1.18 | 874 | – | –
